Source: article PMC6358717 (Proceedings of the National Academy of Sciences of the …, 2018)
Values joined by “and” are separate entries in the source; they are usually repeats but may differ in a detail not shown here. Identical values can stand only once. Blank lines part the entries; values can stand above or below the molecule they belong to.

Experiments:
[1] = biological target: human GPIHBP1 coated on ELISA wells (human) (UniProt Q8IV16); assay: ELISA
crystal structure = biological target: the molecule itself; assay: crystal structure

Chain of human GPIHBP1 coated on ELISA wells (human) (Q8IV16 21-151): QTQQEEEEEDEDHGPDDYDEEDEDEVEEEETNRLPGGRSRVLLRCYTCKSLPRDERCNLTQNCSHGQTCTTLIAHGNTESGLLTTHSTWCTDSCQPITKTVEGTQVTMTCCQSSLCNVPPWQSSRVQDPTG

- percent reduction of binding against LPL-wt [1]: 79% and 85%
Molecule: FLAG-tagged human LPL-M404R (from UniProt P06858 28-475) (enzyme)

B1: human lipoprotein lipase harboring an R324A mutation (enzyme, UniProt P06858 28-475, looked up)
chain: ADQRRDFIDIESKFALRTPEDTAEDTCHLIPGVAESVATCHFNHSSKTFMVIHGWTVTGMYESWVPKLVAALYKREPDSNVIVVDWLSRAQEHYPVSAGYTKLVGQDVARFINWMEEEFNYPLDNVHLLGYSLGAHAAGIAGSLTNKKVNRITGLDPAGPNFEYAEAPSRLSPDDADFVDVLHTFTRGSPGRSIGIQKPVGHVDIYPNGGTFQPGCNIGEAIRVIAERGLGDVDQLVKCSHERSIHLFIDSLLNEENPSKAYRCSSKEAFEKGLCLSCRKNRCNNLGYEINKVRAKASSKMYLKTRSQMPYKVFHYQVKIHFSGTESETHTNQAFEISLYGTVAESENIPFTLPEVSTNKTYSFLIYTEVDIGELLMLKLKWKSDSYFSWSDWWSSPGFAIQKIRVKAGETQKKVIFCSREKVSHLQKGKAPAVFVKCHDKSLNKKSG
modifications: N-linked glycans at N70 and N386
- binding result (crystal structure): binds
